{"source": "patent US20040038205A1", "target": "natural cellular receptor for the adenoviral fiber on 293 cells (human (293 human line)) (UniProt P78310)", "sequence (P78310 20-365)": "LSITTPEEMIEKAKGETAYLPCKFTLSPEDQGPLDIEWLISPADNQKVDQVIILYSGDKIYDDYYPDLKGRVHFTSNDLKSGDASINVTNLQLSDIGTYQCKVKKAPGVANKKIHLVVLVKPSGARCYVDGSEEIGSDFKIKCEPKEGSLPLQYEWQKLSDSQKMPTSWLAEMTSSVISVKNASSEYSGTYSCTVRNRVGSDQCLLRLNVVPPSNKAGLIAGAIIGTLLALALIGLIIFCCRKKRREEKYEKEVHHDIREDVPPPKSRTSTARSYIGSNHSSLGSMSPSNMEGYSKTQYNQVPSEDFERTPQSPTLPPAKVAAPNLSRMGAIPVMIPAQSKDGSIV", "experiment": "cell-based or functional assay"}
{"substance": "native Ad5 fiber carried by the recombinant virus AdLacZ (from UniProt P11818 1-581)", "values": [{"measurement": "degree of inhibition of infection of 293 cells with AdLacZ by recombinant Ad5 knob at 100 µg/ml (LacZ-positive cells)", "value": 95, "unit": "%"}]}
